According to patent US20220372150A1 (ZHEJIANG DOER BIOLOGICS, published 2022):

Key:
[1] = biological target: T1, HSA (purchased from Sigma) (human, UniProt P02768 25-609); experiment: ELISA, VHH at 1 µg/mL on coated HSA, anti-his detection
T1 construct: Control coating for the fusion partner of PDL1-HSA; also called human serum albumin
Method: (§1) Human PDL1-HSA or HSA (purchased from Sigma) was coated onto a plate in an amount of 200 ng/well at 4° C., and blocked with 5% skimmed milk powder for 1 hr at room temperature. The purified anti-PDL1single-domain antibody with a histidine-tag was diluted to 1 μg/mL, added to the plate in an amount of 100 μL/well, and incubated at 37° C. for 1 hr. After washing three times with PBST, 100 μl/well of 1:5000 diluted mouse anti-his tag antibody (R&D Systems Inc.) was added, and the plate was incubated at room temperature for 1 hr. After washing with PBST, 100 μwell of 1:10000 diluted HRP-Goat anti mouse IgG antibody (Thermo Scientific) was added, and the plate was incubated at room temperature for 1 hr. After washing with PBST, a TMB developing solution (Beijing ComWin Biotech Co., Ltd) was added for color development, and the OD value was read at 450 nm.

[2] = biological target: T2, Mouse mPDL1-HSA fusion protein (mouse); experiment: ELISA on coated mPDL1-HSA, anti-his detection
T2 construct: The entry is the whole fusion of mouse PD-L1 with HSA; also called mouse PDL1
Method: Mouse mPDL1-HSA fusion protein (SEQ ID NO: 52) was coated onto a plate overnight in an amount of 200 ng/ well at 4° C., and blocked with 5% skimmed milk powder for 1 hr at room temperature. The purified histidine-tagged anti-PDL1single-domain antibody was diluted to 1 μg/mL, then added to the plate in an amount of 100 μL/well, and incubated at 37° C. for 1 hr. After washing three times with PBST, 100 μl/well of 1:5000 diluted mouse anti his tag antibody (R&D Systems Inc) was added, and the plate was incubated at room temperature for 1 hr. After washing with PBST, 100 μl/well of 1:10000 diluted HRP-Goat anti mouse IgG antibody (Thermo Scientific) was added, and the plate was incubated at room temperature for 1 hr. After washing with PBST, TMB was added for color development, and the OD value was detected at 450 nm.

[3] = biological target: T3, PDL1-HSA fusion protein composed of PDL1 extracellular domain and human serum albumin (human); experiment: ELISA, VHH at 1 µg/mL on coated PDL1-HSA, anti-his detection
T3 construct: The entry is the whole fusion: PD-L1 extracellular domain, linker, human serum albumin; also called Human PDL1-HSA; hPDL1-HSA
Method: as §1

[4] = biological target: T3, PDL1-HSA fusion protein composed of …; experiment: competitive ELISA on coated PDL1-HSA; competitor PD1-Fc (4.8 µg/mL, mixed in equal volume)
Method: PDL1-HSA was coated onto a plate overnight in an amount of 200 ng/well at 4° C., and blocked with 5% skimmed milk powder for 1 hr at room temperature. […] 100 μl was added per well and incubated at 37° C. for 1 hr. After washing three times with PBST, 100 μl of 1:20000 diluted HRP-Goat anti-Human IgG Fc(Novex) was added to each well, and incubated at room temperature for 1 hr. After washing three times with PBS, TMB substrate was added, and the plated was incubated at 37° C. After incubation for 5 min to develop color, 1 M sulfuric acid was added to stop the reaction. The OD value was read at 450 nm, and the half maximal inhibitory concentration (IC50 value) was calculated.

T3 sequence (chain, as listed by the source limits assumed): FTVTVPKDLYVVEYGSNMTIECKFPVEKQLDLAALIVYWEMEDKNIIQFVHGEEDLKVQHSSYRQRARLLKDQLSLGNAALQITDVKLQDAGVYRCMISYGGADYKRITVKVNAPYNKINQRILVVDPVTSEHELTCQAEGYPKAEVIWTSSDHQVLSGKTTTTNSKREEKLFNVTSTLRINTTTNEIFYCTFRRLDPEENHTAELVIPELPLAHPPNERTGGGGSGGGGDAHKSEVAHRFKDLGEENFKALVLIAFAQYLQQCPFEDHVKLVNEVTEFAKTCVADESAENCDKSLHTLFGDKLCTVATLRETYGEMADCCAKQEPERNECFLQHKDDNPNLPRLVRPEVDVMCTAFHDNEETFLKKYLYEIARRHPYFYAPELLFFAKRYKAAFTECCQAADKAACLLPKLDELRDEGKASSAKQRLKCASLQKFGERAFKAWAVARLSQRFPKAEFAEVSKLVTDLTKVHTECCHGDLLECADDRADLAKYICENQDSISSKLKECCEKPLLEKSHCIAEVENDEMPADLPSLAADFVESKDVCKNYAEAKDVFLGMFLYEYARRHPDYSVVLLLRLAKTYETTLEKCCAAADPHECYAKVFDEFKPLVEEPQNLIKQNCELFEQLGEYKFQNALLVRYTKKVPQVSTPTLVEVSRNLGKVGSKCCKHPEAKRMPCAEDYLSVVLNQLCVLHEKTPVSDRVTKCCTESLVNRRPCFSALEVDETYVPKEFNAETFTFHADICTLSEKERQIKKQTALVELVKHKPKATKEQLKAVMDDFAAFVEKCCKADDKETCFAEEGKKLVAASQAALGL
T2 sequence (chain, as listed by the source limits assumed): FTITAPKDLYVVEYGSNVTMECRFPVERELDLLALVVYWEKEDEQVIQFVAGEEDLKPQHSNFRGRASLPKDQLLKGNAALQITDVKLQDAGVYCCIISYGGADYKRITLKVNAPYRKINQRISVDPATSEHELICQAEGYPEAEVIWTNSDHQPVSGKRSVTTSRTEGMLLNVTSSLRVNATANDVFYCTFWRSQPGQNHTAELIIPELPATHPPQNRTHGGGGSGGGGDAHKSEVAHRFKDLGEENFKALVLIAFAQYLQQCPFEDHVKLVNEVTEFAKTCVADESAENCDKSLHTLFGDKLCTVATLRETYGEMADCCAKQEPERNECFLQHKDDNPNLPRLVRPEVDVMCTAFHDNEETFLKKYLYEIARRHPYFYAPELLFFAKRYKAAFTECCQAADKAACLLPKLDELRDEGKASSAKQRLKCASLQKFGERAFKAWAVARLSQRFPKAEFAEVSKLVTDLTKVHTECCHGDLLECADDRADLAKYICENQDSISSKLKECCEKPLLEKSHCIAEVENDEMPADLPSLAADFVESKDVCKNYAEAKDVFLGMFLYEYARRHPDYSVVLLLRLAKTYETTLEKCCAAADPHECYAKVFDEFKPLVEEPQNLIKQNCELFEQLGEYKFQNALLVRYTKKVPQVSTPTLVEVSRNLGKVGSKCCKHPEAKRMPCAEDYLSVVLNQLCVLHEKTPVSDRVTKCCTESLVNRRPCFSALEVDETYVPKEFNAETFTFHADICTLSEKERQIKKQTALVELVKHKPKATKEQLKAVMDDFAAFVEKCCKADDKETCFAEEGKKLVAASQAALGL
T1 sequence (P02768 25-609 limits assumed): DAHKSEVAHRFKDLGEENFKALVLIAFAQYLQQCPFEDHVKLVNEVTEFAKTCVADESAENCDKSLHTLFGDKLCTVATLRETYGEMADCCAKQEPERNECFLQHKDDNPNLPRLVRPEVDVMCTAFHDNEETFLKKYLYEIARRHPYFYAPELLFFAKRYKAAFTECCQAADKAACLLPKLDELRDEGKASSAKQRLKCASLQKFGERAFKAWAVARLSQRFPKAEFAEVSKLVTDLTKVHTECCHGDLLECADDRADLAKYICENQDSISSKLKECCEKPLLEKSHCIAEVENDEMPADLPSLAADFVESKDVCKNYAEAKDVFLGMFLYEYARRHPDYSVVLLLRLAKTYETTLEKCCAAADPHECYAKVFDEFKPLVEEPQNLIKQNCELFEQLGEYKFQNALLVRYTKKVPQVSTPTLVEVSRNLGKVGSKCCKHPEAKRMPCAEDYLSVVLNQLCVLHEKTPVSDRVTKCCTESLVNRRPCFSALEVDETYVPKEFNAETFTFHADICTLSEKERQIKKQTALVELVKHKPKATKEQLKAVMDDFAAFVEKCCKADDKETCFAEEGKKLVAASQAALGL

| OD450 nm [1] | binding result [2] | OD450 nm [3] | IC50 [4] | Binder |
| --- | --- | --- | --- | --- |
| 0.076 OD450 nm | no binding (tested: 1 µg/mL) | 2.15 OD450 nm | 0.0551 µg/mL | anti-PDL1 single-domain antibody 1D7, histidine-tagged (VHH, not shown: C-terminal histidine tag) VHH: QVQLVESGGGLVQPGGSLRLSCAASGRAFLTYAMGWFRQAPGKEREFVAAISWSGSSTYYADSVKGRFTISRDNAKNMVYLQMNSLKPEDTAVYYCAAKVSGATRDHLMTTYDYWGQGTQVTVSS |
| 0.081 OD450 nm | no binding (tested: 1 µg/mL) | 2.05 OD450 nm | 0.0527 µg/mL | anti-PDL1 single-domain antibody 6F1, histidine-tagged (VHH, not shown: C-terminal histidine tag) VHH: QLQLVESGGGLVQPGGSLRLSCAASGRTFSTHSMHWFRQAPEKERVFVAAINWNGDSTYYADSVKGRFTISRDNSKNTVDLQMNNLKPEDTAVYVCAARPGAPSTIVAMLDYWGQGTQVTVSS |
| 0.082 OD450 nm | no binding (tested: 1 µg/mL) | 2.05 OD450 nm | 0.0505 µg/mL | anti-PDL1 single-domain antibody 1A7, histidine-tagged (VHH, not shown: C-terminal histidine tag) VHH: QLQLVESGGDLVQPGGSLRLSCAASGSIFSANLIDWYRQPPGKQRELVAVISSRGITSYADSVKGRFTISRDNAKNTVYLQMNSLKPEDTAVYYCHLFHTDGLGYWGQGTQVTVSS |
| 0.074 OD450 nm | no binding (tested: 1 µg/mL) | 2.01 OD450 nm | 0.0452 µg/mL | anti-PDL1 single-domain antibody 1D1, histidine-tagged (VHH, not shown: C-terminal histidine tag) VHH: QLQLVESGGGLVQAGGSLRLSCAASGGTFITYAMGWFRQAPGKDREFVAGISWSGSSTYYTDSVKGRFTISRDNAKNTVYLQMNSLKPGDTAVYYCAAKISGATREHLMTSYDYWGQGTQVTVSS |
| 0.064 OD450 nm | no binding (tested: 1 µg/mL) | 2.02 OD450 nm | 0.0436 µg/mL | anti-PDL1 single-domain antibody 5A8, histidine-tagged (VHH, not shown: C-terminal histidine tag) VHH: QLQLVESGGGLVQPGGSLRLSCAASGGTFITYAMGWFRQAPGKDREFVAGISWSGSSTYYTDSVKGRFTISRDNAQNTVYLQMNSRKPGDTAVYYCAAKISGATREHLRTSYDYGGQGTQVTVSS |
| 0.073 OD450 nm | no binding (tested: 1 µg/mL) | 2.08 OD450 nm | 0.0628 µg/mL | anti-PDL1 single-domain antibody 1G10, histidine-tagged (VHH, not shown: C-terminal histidine tag) VHH: QVQLVESGGGLVQAGGSLRLSCAASGRPFITYAMGWFRQAPGKEREFVAAINWSGSITAYADSVKGRFTISRDNAKNAAYLQMNSLKPDDTAVYYCASKRTAVAPRALNDYDFWGQGTQVTVSS |
